In this experiment the target is 53BP1 fragment (a.a. 1221-1718) fused to an adenylate cyclase fragment (two-hybrid) (UniProt Q12888). Kind of experiment: cell-based or functional assay.
Substance “i53 + E16H two-hybrid fusion (designed binder)” showed an Experiment 1 Average Enrichment of 0.03 log2, an Experiment 1 Rep 1 Enrichment of 0 log2, an Experiment 1 Rep 2 Enrichment of 0.05 log2 and an Experiment 2 Average Enrichment of -0.13 log2. Moreover, the Experiment 2 Rep 1 Enrichment is -0.21 log2 and the Experiment 2 Rep 2 Enrichment was -0.05 log2.
“i53 + E16N two-hybrid fusion (designed binder)” returned an Experiment 1 Average Enrichment of 0.11 log2, an Experiment 1 Rep 1 Enrichment of -0.32 log2, an Experiment 1 Rep 2 Enrichment of 0.54 log2 and an Experiment 2 Average Enrichment of 0.26 log2. The same substance showed an Experiment 2 Rep 1 Enrichment of 0.34 log2 and an Experiment 2 Rep 2 Enrichment of 0.18 log2.
In turn, “i53 + E16T two-hybrid fusion (designed binder)” registered an Experiment 1 Average Enrichment of 0.88 log2, an Experiment 1 Rep 1 Enrichment of 1.12 log2, an Experiment 1 Rep 2 Enrichment of 0.64 log2 and an Experiment 2 Average Enrichment of 0.3 log2. This substance also yielded an Experiment 2 Rep 1 Enrichment of 0.27 log2 and an Experiment 2 Rep 2 Enrichment of 0.33 log2.
The substance “i53 + E16Y two-hybrid fusion (designed binder)” displayed an Experiment 1 Average Enrichment of 0.35 log2, an Experiment 1 Rep 1 Enrichment of 0.23 log2, an Experiment 1 Rep 2 Enrichment of 0.47 log2 and an Experiment 2 Average Enrichment of -0.22 log2. The substance further displayed an Experiment 2 Rep 1 Enrichment of -0.32 log2 and an Experiment 2 Rep 2 Enrichment of -0.11 log2.
In the case of “i53 + E18C two-hybrid fusion (designed binder)”, the Experiment 1 Average Enrichment stood at 0.23 log2, the Experiment 1 Rep 1 Enrichment is -0.06 log2, the Experiment 1 Rep 2 Enrichment amounted to 0.52 log2 and the Experiment 2 Average Enrichment is -0.34 log2. The Experiment 2 Rep 1 Enrichment was -0.82 log2 and the Experiment 2 Rep 2 Enrichment was found to be 0.14 log2.
On to “i53 + E18D two-hybrid fusion (designed binder)”, for which the Experiment 1 Average Enrichment is -0.85 log2, the Experiment 1 Rep 1 Enrichment was -0.69 log2, the Experiment 1 Rep 2 Enrichment was -1.02 log2 and the Experiment 2 Average Enrichment is 0.14 log2. Besides, the Experiment 2 Rep 1 Enrichment came out at 1.65 log2 and the Experiment 2 Rep 2 Enrichment is -1.37 log2.
“i53 + E18F two-hybrid fusion (designed binder)” registered an Experiment 1 Average Enrichment of 0.51 log2, an Experiment 1 Rep 1 Enrichment of 0.09 log2, an Experiment 1 Rep 2 Enrichment of 0.93 log2 and an Experiment 2 Average Enrichment of 0.54 log2. Also, the Experiment 2 Rep 1 Enrichment was found to be 0.22 log2 and the Experiment 2 Rep 2 Enrichment was 0.87 log2.
Take “i53 + E18H two-hybrid fusion (designed binder)”: the Experiment 1 Average Enrichment is 1.17 log2, the Experiment 1 Rep 1 Enrichment was 0.39 log2, the Experiment 1 Rep 2 Enrichment is 1.96 log2 and the Experiment 2 Average Enrichment worked out at 0.07 log2. Also, the Experiment 2 Rep 1 Enrichment was found to be 0.24 log2 and the Experiment 2 Rep 2 Enrichment was -0.11 log2.
The substance “i53 + E18L two-hybrid fusion (designed binder)” displayed an Experiment 1 Average Enrichment of 0.75 log2, an Experiment 1 Rep 1 Enrichment of 0.75 log2, an Experiment 1 Rep 2 Enrichment of 0.76 log2 and an Experiment 2 Average Enrichment of 0.66 log2. This substance also gave an Experiment 2 Rep 1 Enrichment of 0.62 log2 and an Experiment 2 Rep 2 Enrichment of 0.71 log2.
As to “i53 + E18N two-hybrid fusion (designed binder)”, the Experiment 1 Average Enrichment is -0.45 log2, the Experiment 1 Rep 1 Enrichment came to 0.34 log2, the Experiment 1 Rep 2 Enrichment was -1.23 log2 and the Experiment 2 Average Enrichment was determined as 0.1 log2. The same substance returned an Experiment 2 Rep 1 Enrichment of -0.64 log2 and an Experiment 2 Rep 2 Enrichment of 0.85 log2.
With “i53 + E18Q two-hybrid fusion (designed binder)”, the Experiment 1 Average Enrichment is 0.72 log2, the Experiment 1 Rep 1 Enrichment is 0.61 log2, the Experiment 1 Rep 2 Enrichment is 0.83 log2 and the Experiment 2 Average Enrichment was 0.03 log2. Also, the Experiment 2 Rep 1 Enrichment was 0.02 log2 and the Experiment 2 Rep 2 Enrichment stood at 0.05 log2.
In the case of “i53 + E18R two-hybrid fusion (designed binder)”, the Experiment 1 Average Enrichment was -0.75 log2, the Experiment 1 Rep 1 Enrichment is -1.22 log2, the Experiment 1 Rep 2 Enrichment is -0.28 log2 and the Experiment 2 Average Enrichment came out at 0.06 log2. Moreover, the Experiment 2 Rep 1 Enrichment was -0.24 log2 and the Experiment 2 Rep 2 Enrichment was 0.36 log2.
“i53 + E18S two-hybrid fusion (designed binder)”: the Experiment 1 Average Enrichment turned out to be 0.48 log2, the Experiment 1 Rep 1 Enrichment was 0.47 log2, the Experiment 1 Rep 2 Enrichment is 0.49 log2 and the Experiment 2 Average Enrichment came out at 0.33 log2. Further, the Experiment 2 Rep 1 Enrichment was -0.01 log2 and the Experiment 2 Rep 2 Enrichment amounted to 0.67 log2.
In turn, “i53 + E18T two-hybrid fusion (designed binder)” had an Experiment 1 Average Enrichment of -0.27 log2, an Experiment 1 Rep 1 Enrichment of -0.33 log2, an Experiment 1 Rep 2 Enrichment of -0.21 log2 and an Experiment 2 Average Enrichment of 0.28 log2. The substance further displayed an Experiment 2 Rep 1 Enrichment of 0.23 log2 and an Experiment 2 Rep 2 Enrichment of 0.34 log2.
Take “i53 + E18W two-hybrid fusion (designed binder)”: the Experiment 1 Average Enrichment amounted to 0.18 log2, the Experiment 1 Rep 1 Enrichment is 0.06 log2, the Experiment 1 Rep 2 Enrichment is 0.31 log2 and the Experiment 2 Average Enrichment was 0.75 log2. Further, the Experiment 2 Rep 1 Enrichment turned out to be 0.8 log2 and the Experiment 2 Rep 2 Enrichment came out at 0.69 log2.
In the case of “i53 + E18Y two-hybrid fusion (designed binder)”, the Experiment 1 Average Enrichment turned out to be 0.72 log2, the Experiment 1 Rep 1 Enrichment is 1.28 log2, the Experiment 1 Rep 2 Enrichment stood at 0.17 log2 and the Experiment 2 Average Enrichment was determined as 0.82 log2. This substance also showed an Experiment 2 Rep 1 Enrichment of 1.2 log2 and an Experiment 2 Rep 2 Enrichment of 0.44 log2.
For the substance “i53 + E34T two-hybrid fusion (designed binder)”, the Experiment 1 Average Enrichment came to 0.12 log2, the Experiment 1 Rep 1 Enrichment was 2.15 log2, the Experiment 1 Rep 2 Enrichment is -1.91 log2 and the Experiment 2 Average Enrichment is -3.54 log2. For the same substance, the Experiment 2 Rep 1 Enrichment is -3.26 log2 and the Experiment 2 Rep 2 Enrichment is -3.83 log2.
The substance “i53 + E51D two-hybrid fusion (designed binder)” had an Experiment 1 Average Enrichment of 0.52 log2, an Experiment 1 Rep 1 Enrichment of 0.31 log2, an Experiment 1 Rep 2 Enrichment of 0.72 log2 and an Experiment 2 Average Enrichment of 0.61 log2. The Experiment 2 Rep 1 Enrichment was 0.29 log2 and the Experiment 2 Rep 2 Enrichment is 0.92 log2.
Turning to “i53 + H68E two-hybrid fusion (designed binder)”, the Experiment 1 Average Enrichment was -1.08 log2, the Experiment 1 Rep 1 Enrichment was -0.69 log2, the Experiment 1 Rep 2 Enrichment is -1.48 log2 and the Experiment 2 Average Enrichment turned out to be 0.1 log2. This substance yielded an Experiment 2 Rep 1 Enrichment of 0.33 log2 and an Experiment 2 Rep 2 Enrichment of -0.13 log2.
In turn, “i53 + H68M two-hybrid fusion (designed binder)” showed an Experiment 1 Average Enrichment of 2.28 log2, an Experiment 1 Rep 1 Enrichment of 2.53 log2, an Experiment 1 Rep 2 Enrichment of 2.04 log2 and an Experiment 2 Average Enrichment of 1.28 log2. Besides, the Experiment 2 Rep 1 Enrichment was 0.99 log2, the Experiment 2 Rep 2 Enrichment was found to be 1.58 log2, the Percent GFP Positive Rep 1 was 28.6% and the Percent GFP Positive Rep 2 amounted to 23.5%. This substance displayed a Percent GFP Positive Rep 3 of 28.3%.
With “i53 + H68Q two-hybrid fusion (designed binder)”, the Experiment 1 Average Enrichment came out at 0.07 log2, the Experiment 1 Rep 1 Enrichment turned out to be 0.44 log2, the Experiment 1 Rep 2 Enrichment is -0.3 log2 and the Experiment 2 Average Enrichment was -0.5 log2. The substance also yielded an Experiment 2 Rep 1 Enrichment of -0.62 log2 and an Experiment 2 Rep 2 Enrichment of -0.38 log2.
For “i53 + I13F two-hybrid fusion (designed binder)”, the Experiment 1 Average Enrichment worked out at 0.53 log2, the Experiment 1 Rep 1 Enrichment amounted to 1.04 log2, the Experiment 1 Rep 2 Enrichment was 0.03 log2 and the Experiment 2 Average Enrichment is -0.09 log2. Besides, the Experiment 2 Rep 1 Enrichment is -0.26 log2 and the Experiment 2 Rep 2 Enrichment amounted to 0.07 log2.
“i53 + I13H two-hybrid fusion (designed binder)” gave an Experiment 1 Average Enrichment of 0.5 log2, an Experiment 1 Rep 1 Enrichment of -0.27 log2, an Experiment 1 Rep 2 Enrichment of 1.28 log2 and an Experiment 2 Average Enrichment of -1.6 log2. For the same substance, the Experiment 2 Rep 1 Enrichment is -2.48 log2 and the Experiment 2 Rep 2 Enrichment was -0.71 log2.
“i53 + I13P two-hybrid fusion (designed binder)” gave an Experiment 1 Average Enrichment of 0.58 log2, an Experiment 1 Rep 1 Enrichment of 2.15 log2, an Experiment 1 Rep 2 Enrichment of -0.99 log2 and an Experiment 2 Average Enrichment of -4.23 log2. The substance further gave an Experiment 2 Rep 1 Enrichment of -3.84 log2 and an Experiment 2 Rep 2 Enrichment of -4.62 log2.
As for “i53 + I61L two-hybrid fusion (designed binder)”, the Experiment 1 Average Enrichment is 1.06 log2, the Experiment 1 Rep 1 Enrichment stood at 1.1 log2, the Experiment 1 Rep 2 Enrichment is 1.02 log2 and the Experiment 2 Average Enrichment stood at 0.67 log2. This substance also registered an Experiment 2 Rep 1 Enrichment of 0.75 log2, an Experiment 2 Rep 2 Enrichment of 0.59 log2, a Percent GFP Positive Rep 1 of 15.9% and a Percent GFP Positive Rep 2 of 17.6%. The Percent GFP Positive Rep 3 came to 17.2%.
Regarding “i53 + K29H two-hybrid fusion (designed binder)”, the Experiment 1 Average Enrichment was 0.17 log2, the Experiment 1 Rep 1 Enrichment turned out to be 0.02 log2, the Experiment 1 Rep 2 Enrichment was found to be 0.32 log2 and the Experiment 2 Average Enrichment is -2.73 log2. Also, the Experiment 2 Rep 1 Enrichment is -3.26 log2 and the Experiment 2 Rep 2 Enrichment was -2.2 log2.
“i53 + K29L two-hybrid fusion (designed binder)” displayed an Experiment 1 Average Enrichment of 0.11 log2, an Experiment 1 Rep 1 Enrichment of 0.15 log2, an Experiment 1 Rep 2 Enrichment of 0.07 log2 and an Experiment 2 Average Enrichment of 0.26 log2. This substance registered an Experiment 2 Rep 1 Enrichment of 0.21 log2 and an Experiment 2 Rep 2 Enrichment of 0.3 log2.

These data come from US20230135471A1, “UBIQUITIN VARIANTS WITH IMPROVED AFFINITY FOR 53BP1” (Integrated DNA Technologies, Inc., priority 2021, published 2023).
